This note sets out measurements from patent US20250179196A1 (Janssen / Centocor, published 2025).

Where a chain is given by its changes, count along the chain named.

First the molecules themselves.
T1: human IL-23R expressed on the cell surface of stably transfected iLite and HEK cell lines (human, UniProt Q5VWK5 24-629)
T1 construct: whole, on cells; Same receptor on two transfected cell lines; the cell line is named under assay; also called human IL-23R iLite cells; human IL-23R HEK cells
T1 sequence (looked up): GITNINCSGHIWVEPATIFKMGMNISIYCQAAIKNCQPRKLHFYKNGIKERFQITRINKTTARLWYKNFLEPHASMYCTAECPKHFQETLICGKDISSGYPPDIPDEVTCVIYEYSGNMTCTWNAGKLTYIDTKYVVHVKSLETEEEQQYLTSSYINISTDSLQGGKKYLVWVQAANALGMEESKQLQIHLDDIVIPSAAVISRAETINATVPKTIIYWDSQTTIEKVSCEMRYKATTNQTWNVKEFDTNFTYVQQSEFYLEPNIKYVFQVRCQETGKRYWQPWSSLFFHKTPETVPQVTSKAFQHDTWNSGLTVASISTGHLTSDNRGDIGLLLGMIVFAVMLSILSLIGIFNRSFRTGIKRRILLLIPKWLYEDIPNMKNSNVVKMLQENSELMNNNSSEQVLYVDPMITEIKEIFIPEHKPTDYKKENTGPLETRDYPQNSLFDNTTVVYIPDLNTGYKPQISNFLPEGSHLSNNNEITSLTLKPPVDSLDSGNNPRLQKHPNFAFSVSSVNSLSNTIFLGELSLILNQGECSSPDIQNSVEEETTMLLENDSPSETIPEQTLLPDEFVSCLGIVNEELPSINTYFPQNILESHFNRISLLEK

B1: I23RB87 (antibody, mouse IgG2a, kappa, V domains shown)
VH: EFQLQQSGPELVKPGTSVKMSCKASGYTFTNYVMHWVKQKPGQGLEWIGYINPYDASPKYNEKFKGKAILTSDKSSSTAYMELSSLTSEDSAVYYCTRDAKLDYFDYWGQGTTLTVSS
VL: DIVMTQTTSSLSASLGDRVTISCRASQDISNYLNWYQQKPDGTVKLLIYYTSRLHSGVPSRFSGSGSGTDFSLTISNLEQEDIATYFCQQGITLPWTFGAGTKLELKR
notes: immunization; mouse IgG2a/kappa
B2: I23RB102 (antibody, mouse IgG2a, kappa, V domains shown)
VH: QVQLQQPGAELVKPGASVKVSCKASGYTFTKYWINWMNQRPGQGLEWIGNIYPGSISTNYNEKFKSKVTLTVDISSSTAYMQLSSLTSDDSAVYYCARGDFYALDYWGQGTTLTVSS
VL: DIQMTQSPASLSVSVGETVTITCRASENIYSHITWYQLKQGKSPQLLVYASTNLADDVPSRFSGSGSGTQYSLKINSLLSEDFGTYYCQHFWGTPWTFGGGTKLEMKR
notes: as for B1
B3: I23RB67 (antibody, mouse IgG2a, kappa, V domains shown)
VH: EVQLQQSGAELVKPGASVKLSCKASGYTFTSYWINWVKQRPGQGLEWIGNIYPGSSSTNYNEKFKSKATLTVDTSSSTAYMQLSSLTSDDSAVYYCARSAYGNRLAMDYWGQGTTLTVSS
VL: DVVMTQSHKFMSTSVGDRVSITCKASQDVSTAVAWYQQKPGQSPKLLIYSAFYRYTGVPDRFTGSGSGTDFTFTISSVQAEDLAVYYCQQHYSTPYTFGGGTKLELKR
notes: as for B1
B4: I23RB54 (antibody, mouse IgG2a, kappa, V domains shown)
VH: EVQLQQSGGGLVKPGGSLKLSCAASGFTFSSYAMSWVRQTPEKRLEWVAGISSGGSYIYYPDNVKGRFTISRDNARNTLYLQMSSLRSEDTAMYYCARKKSDYGAMDYWGQGTTLTVSS
VL: DIQMTQSPKFLLVSAGDRVTITCKASQSVSNDVAWYQQKPGQSPRLLIYYASNRYTGVPDRFTGSGYGTDFTFTISTVQAEDLAVYFCQQDYSSLPTFGAGTKLEMKR
notes: as for B1
B5: I23RB78 (antibody, mouse IgG2a, kappa, V domains shown)
VH: EFQLQQSGGGLVKPGGSLKLSCAASGFTFSNYTMSWVRQTPEKRLKWVACISSGGGNTYYPDSVKGRFTISRDNARNTLYLQMSSLRSEDTAMYYCARRNYRRAMDYWGQGTSVTVSS
VL: DIVMTQSPASLAVSLGQRATISCRASESVDSYGISFMHWYQQKPGQPPKLLIYRASNLESGIPARFSGSGSRTDFTLTINPVEADDVATYYCQQSNEDPWTFGAGTGLEIKR
notes: as for B1
B6: I23RB91 (antibody, mouse IgG2a, kappa, V domains shown)
VH: EFQLQQFGPELLKPGASVKISCKASGYTFTDYIMHWVKQSHGKSLEWIGGISPNYGGTGYNGKFKDKATLTVDKSSSTAYMELRSLTSEDSAVYYCARFNNYYYFDYWGQGTTLTVSS
VL: DIKMTQSPSSMYASLGERVTITCKASQDINSYLSWCQQKPGKSPKALIYRANSLVDGVPSRFSGSGSGQDYSLTISSLEYEDMGIYYCLQYDEFPYTFGGGTKLEMKR
notes: as for B1
B7: I23RB180 (antibody, mouse IgG2a, kappa, V domains shown)
VH: QVTLKESGPGILQPSQTLSLTCSFSGFSLSTYGMGVGWIRQPSGKGLEWLANIWWNDSKYHNAALKSRLTISKDTSKNQVFLKIASVDTADTATYYCGRIDGYYECVDVWGTGTSVTVSS
VL: DIQMTQSPASLSASVGETVTITCRASVNIHNYLAWYQQKQGKSPQLLVYNAKTLADGVPSRFSGSGSGTQYSLKINSLQPEDFGSYYCQHFWTTPYMYTFGAGTKLELKR
notes: as for B1
B8: I23RB267 (antibody, mouse IgG2a, kappa, V domains shown)
VH: EVQLVQSGAEVKKPGESLKISCKGSGYSFTSYWIGWVRQMPGKGLEWMGIIYPGDSDTRYSPSFQGQVTISADKSISTAYLQWSSLKASDTAMYYCARVWYSSWDLDYWGQGTLVTVSS
VL: not shown
notes: phage display; human V, mouse IgG2a/kappa
B9: I23RB69 (antibody, mouse IgG2a, kappa, V domains shown)
VH: EVQLQQSGAELVKPGASVKISCKASGYSFTGYNMNWVKQSHGKSLEWIGNINPFYDKTSYNQKFKGKATLTVDKASSTAYMQLNSLTSEDSAVYYCARQLGLKGFAYWGQGTLVTVSA
VL: B3 VL with V2I, F52S, Y96W, L106M
notes: as for B1
B10: I23RB260 (antibody, mouse IgG2a, kappa, V domains shown)
VH: QVQLVQSGAEVKKPGSSVKVSCKASGGTFSSYGISWVRQAPGQGLEWMGGIIPIFGTANYAQKFQGRVTITADESTSTAYMELSSLRSEDTAVYYCARDFGWSLWFDYWGQGTLVTVSS
VL: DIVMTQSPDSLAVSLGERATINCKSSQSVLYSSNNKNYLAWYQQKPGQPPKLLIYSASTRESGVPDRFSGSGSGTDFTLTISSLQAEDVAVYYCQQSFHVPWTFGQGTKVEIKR
notes: as for B8
B11: I23RB35 (antibody, mouse IgG2a, kappa, V domains shown)
VH: DVQLQESGPGLVKPSQSLSLTCSVTGYSITSGHNWNWIRQFPGNKLEWLGYISYDGSNNYDPSLKNRISITRDTSKNQFFLKLNSVTTEDTATYYCARGGGYFGNSYRVFASWGQGTTVTVSS
VL: B5 VL with M4L, I34N, G61E, S69R, R72G, E97A, W100Y, A104G, G107K
notes: as for B1
B12: I23RB321 (antibody, mouse IgG2a, kappa, V domains shown)
VH: QVQLVQSGAEVKKPGSSVKVSCKASGGTFSSYGISWVRQAPGQGLEWMGWISAIFGTTNYAQKFQGRVTITADESTSTAYMELSSLRSEDTAVYYCARHWLQSFDYWGQGTLVTVSS
VL: DIQMTQSPSSLSASVGDRVTITCRASQSIGGDLNWYQQKPGKAPKLLIYAASSLQSGVPSRFSGSGSGTDFTLTISSLQPEDFATYYCQQSYSTPLTFGQGTKVEIKR
notes: as for B8
B13: I23RB264 (antibody, mouse IgG2a, kappa, V domains shown)
VH: B12 VH with G33A, W50G, S52I, A53P, T58A, H99R, W100S, L101S, Q102P, S103G
VL: B12 VL with G30D, G31N, A50N, S91P, T94I
notes: as for B8
B14: I23RB261 (antibody, mouse IgG2a, kappa, V domains shown)
VH: B12 VH with G33A, A53P, I54Y, T58A, H99M, W100Y, L101R, S103G
VL: B12 VL with G30N, G31D
notes: as for B8
B15: I23RB319 (antibody, mouse IgG2a, kappa, V domains shown)
VH: B12 VH with V93L, H99P, W100L, L101K, S103A
VL: B12 VL with G30T, G31D
notes: as for B8
B16: I23RB313 (antibody, mouse IgG2a, kappa, V domains shown)
VH: B12 VH with H99G, W100T, L101V, Q102P, S103G
VL: B12 VL with G31E
notes: as for B8
B17: I23RB317 (antibody, mouse IgG2a, kappa, V domains shown)
VH: QVQLVQSGAEVKKPGSSVKVSCKASGGTFSSYAISWVRQAPGQGLEWMGGIIPIFGTANYAQKFQGRVTITADESTSTAYMELSSLRSEDTAVYYCARGNGVNYHSELDYWGQGTLVTVSS
VL: EIVLTQSPATLSLSPGERATLSCRASQSVDSFLAWYQQKPGQAPRLLIYTASNRATGIPARFSGSGSGTDFTLTISSLEPEDFAVYYCQQGNSAPFTFGQGTKVEIKR
notes: as for B8

Broadly, the EC50 is the concentration giving half of the maximal effect. A low value points to a more potent agent.

The target in the first assay is T1, human IL-23R expressed on the cell …. The assay can be described thus: flow cytometry on human IL-23R HEK cells, Expt E (11-point, 384well). The procedure:
HEK-IL-23R cell concentration response mAb binding (11-point, 384-well assay). […] IL-23R mAbs were allowed to bind to cells for 30 minutes, at 37° C. […] Cells were next washed twice in ice-cold stain buffer, then resuspended in a final volume of 10 μL with Sytox Green viability dye (ThermoFisher, Cat #S7020). Plates were kept on ice until run for analysis on the iQue. All washes were performed by centrifugation (800 rcf, 3 minutes) followed by automated aspiration to remove supernatants with plate washers. Cell-binding to HEK-IL-23R cells was measured with FlowJo, by gating for single, viable cells and determining the geometric mean fluorescence intensity (MFI) for the 647 detection antibody. Geometric mean fluorescence intensities were plotted over log mAb concentrations fitted with a dose response curve with variable slope using GraphPad Prism.
A general note: A flow cytometer gives signals particle by particle.
As to B1, the 50% effective concentration (EC50) is more than 0.05 µM and the “MFI (6.4 nM)” value stood at 86100 MFI. Consider B2, for which the response was half-maximal at 0.0086 µM (EC50) and the “MFI (6.4 nM)” value came out at 258000 MFI. Turning to B3, the concentration giving a half-maximal response (EC50) is 0.018 µM and the “MFI (6.4 nM)” value worked out at 80900 MFI.

Regarding B4, a half-maximal response (EC50) required 0.0352 µM and the “MFI (6.4 nM)” value was 63100 MFI. B5: the concentration for a half-maximal effect (EC50) worked out at 0.0158 µM and the “MFI (6.4 nM)” value was found to be 84200 MFI.

Another assay shares this target. Briefly: flow cytometry on human IL-23R HEK cells, Expt D (8-point, 96well). The procedure:
HEK-IL-23R cell concentration response mAb binding (8-point, 96-well assay). […] HEK-IL-23R and HEK-parental cells (12.5 μL of each, 120000 cells total) were plated in 2× replicate on 96-well V-bottom plates (Corning, Cat #3357) into 37° C. warmed Assay medium containing serially diluted IL-23R mAbs to a final volume of 150 μL. IL-23R mAbs were allowed to bind to cells for 30 minutes, at 37° C. […] Cells were next washed twice in ice-cold stain buffer, then resuspended in a final volume of 30 μL with Sytox Green viability dye (ThermoFisher, Cat #S7020). Plates were kept on ice until run for analysis on the iQue. All washes were performed by centrifugation (800 rcf, 3 minutes) followed by flick decantation to remove supernatants. Cell-binding to HEK-IL-23R cells was measured with FlowJo, by gating for single, viable cells and determining the geometric mean fluorescence intensity (MFI) for the 647 detection antibody. Geometric mean fluorescence intensities were plotted over log mAb concentrations fitted with a dose response curve with variable slope using GraphPad Prism.
In turn, B6 returned an EC50 of 0.0303 µM. On the same count and under the same terms, then B7, with 0.0276 µM. B8 yielded an EC50 of 0.0094 µM. With B9, a half-maximal response (EC50) required 0.0006 µM. On to B10, for which the EC50 is more than 0.05 µM. With B11, a half-maximal effect (EC50) was put at 0.0002 µM.

Regarding B12, the EC50 turned out to be 0.0186 µM.

Turning to B13, the concentration giving a half-maximal response (EC50) was more than 0.05 µM. Molecule B14 came in with an EC50 of 0.0092 µM. Take B15: the midpoint of the response, the EC50, lay at 0.0087 µM. Molecule B16 yielded a concentration giving a half-maximal response (EC50) of more than 0.05 µM. The same measure, in the same setting: the figure for B17 is 0.031 µM.
